Experiments:
myostatin (MSTN) = target: T1, myostatin (MSTN) (UniProt O14793)
T1 sequence: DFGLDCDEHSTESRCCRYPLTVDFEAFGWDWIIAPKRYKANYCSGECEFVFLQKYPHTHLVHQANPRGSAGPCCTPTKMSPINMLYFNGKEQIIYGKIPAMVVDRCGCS

GDF11 = target: T2, GDF11 (UniProt O95390)
T2 sequence: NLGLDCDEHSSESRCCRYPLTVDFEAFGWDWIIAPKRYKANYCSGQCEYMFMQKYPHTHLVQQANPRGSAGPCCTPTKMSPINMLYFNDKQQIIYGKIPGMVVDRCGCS

activin A = activin A (UniProt P08476)
Sequence of UniProt P08476 (P08476 311-426): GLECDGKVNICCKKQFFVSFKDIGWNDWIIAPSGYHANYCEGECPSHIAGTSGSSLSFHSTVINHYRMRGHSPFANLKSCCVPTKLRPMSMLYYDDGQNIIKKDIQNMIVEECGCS

Row | IC50 of suppression of 1 nM MSTN activity, pGL3-(CAGA)12 luciferase reporter in HEK293 cells (180-0 nM FST-type protein) (myostatin (MSTN)) [nM] | IC50 of suppression of 1 nM GDF11 activity, pGL3-(CAGA)12 luciferase reporter in HEK293 cells (180-0 nM FST-type protein) (GDF11) [nM] | IC50 of suppression of 1 nM activin A activity, pGL3-(CAGA)12 luciferase reporter in HEK293 cells (180-0 nM FST-type protein) (activin A) [nM] | IC50 of suppression of 1 nM MSTN activity, pGL3-(CAGA)12 luciferase reporter in HEK293 cells (myostatin (MSTN)) [nM] | IC50 of suppression of 1 nM GDF11 activity, pGL3-(CAGA)12 luciferase reporter in HEK293 cells (GDF11) [nM] | Substance
1 | 68.9 | 57.9 | 15.3 |  |  | MBP-NDFSD1 (chicken follistatin N-terminal domain and FSD1 fused to maltose-binding protein) (domain or fragment)
2 | 64 | 26.2 |  |  |  | MBP-NDFSD1/1 (chicken follistatin N-terminal domain, FSD1 and a second FSD1 fused to maltose-binding protein) (domain or fragment)
3 | 10.5 | 3.56 | 8.59 |  |  | MBP-NDFSD1/2 (chicken follistatin N-terminal domain, FSD1 and FSD2 fused to maltose-binding protein) (domain or fragment)
4 | 2.01 | 1.64 | 3.96 |  |  | MBP-FST288 (chicken follistatin FST288 fused to maltose-binding protein) (natural protein)
5 |  |  |  | 4.81 | 6.35 | MBP-FST315 (MBP-fused chicken follistatin FST315) (from UniProt Q90844 29-343) (natural protein)

Source: PMC4547976
